In experiment [1] the target is T1, KRAS G12R peptide on HLA-B*07:02 (human).
T1 peptide: GARGVGKSAL
The experiment can be described thus: mean peptide concentration for 50% NFAT activation; J^ASP90 reporter cells 1:1 with HLA-SCD K562 pulsed with titrated peptide (10 μM–1 pM), 16–20 h; full-length, on cells.

Experiment [2] deals with KRAS G12V peptide on HLA-A*11:01 (human). The experiment is described as above.

B1: TCRB7R (TCR)
alpha TRAV4 TRAJ41 CDR3: CLVGDFNSNSGYALNF
beta TRBV7-2 TRBJ1-2 CDR3: CASKVYGYTF
B1: the EC50 of peptide in experiment [1] amounted to 3.38 nM.

B2: TCRA11V (TCR)
alpha TRAV12-1 TRAJ8 CDR3: CAVNPPDTGFQKLVF
beta TRBV28 TRBJ2-7 CDR3: CASSLSFRQGLREQYF
The molecule B2 gave an EC50 of peptide in experiment [2] of 0.15 nM.

(Values after article PMC8285372 (2021).)
